Key:
VDAC = test: Blue Native Page and GST pull-down with heart mitochondria protein extracts; assay type: binding, mouse; conditions: BN-PAGE and GST pull-down
Text: (§1) After ethical committee approval, all patients in this study gave written consent for sample collection and molecular analysis prior to inclusion. Patients were carefully selected by physicians from the Department of Cardiology, Toulouse University Hospital, prior to coronary by-pass surgery. Bioinformatics. Microarray expression data from human heart samples were downloaded from the GEO repository (GSE1145). This series consisted of 107 myocardial samples collected from patients undergoing cardiac transplantation whose failure arises from different etiologies (e.g. idiopathic dilated cardiomyopathy, ischemic cardiomyopathy, valvular cardiomyopathy, and hypertrophic cardiomyopathy) and from “normal” organ donors whose hearts cannot be used for transplants. Arrays were intensity normalized and hierarchical clustering (average group linkage, Pearson correlation, threshold r=0.8) was applied to identify groups of co-expressed genes. […] All ApoO sequences within the expression vectors were verified by DNA double strand sequencing using ABI PRISM®BigDye™ Terminator version 3.1 Ready reaction cycle sequencing kit (Life Technologies SAS, Villebon sur Yvette) and loaded on an ABI 3130XL DNA sequencing instrument (Life Technologies SAS, Villebon sur Yvette). […]

cardiac myoblasts = test: Transmission electron microscopy of cardiac myoblasts; assay type: cell-based; conditions: ApoO cells
Text: as §1

glioblastoma cells = test: Transmission electron microscopy of glioblastoma cells; assay type: cell-based
Experimental: Transmission electron microscopy of control (left) and ApoO expressing (right) cells incubated overnight with 100 μM of palmitate (n=6). Black arrows indicate lipid droplets.
Transmission electron microscopy of control (left) and ApoO expressing (right) cells. Black arrows indicate blebs (n=3).

mouse heart = test: Cardiac specific human ApoO transgenic mice (ApoO-Tg); assay type: in vivo
Text: After ethical committee approval, all patients in this study gave written consent for sample collection and molecular analysis prior to inclusion. Patients were carefully selected by physicians from the Department of Cardiology, Toulouse University Hospital, prior to coronary by-pass surgery. Bioinformatics. Microarray expression data from human heart samples were downloaded from the GEO repository (GSE1145). This series consisted of 107 myocardial samples collected from patients undergoing cardiac transplantation whose failure arises from different etiologies (e.g. idiopathic dilated cardiomyopathy, ischemic cardiomyopathy, valvular cardiomyopathy, and hypertrophic cardiomyopathy) and from “normal” organ donors whose hearts cannot be used for transplants. Arrays were intensity normalized and hierarchical clustering (average group linkage, Pearson correlation, threshold r=0.8) was applied to identify groups of co-expressed genes. ApoO expression levels were plotted for the 107 human hearts tested and used to define relevant molecular pathways using both Toppgene and Ingenuity Pathway Analysis (Ingenuity systems, Redwood City, Calif., USA). ApoO subcellular localization was predicted using Mitopred, mitoprot and YLoc. Animals: All animal Studies followed the INSERM Institute Animal Facility guidelines and were approved by the animal care committees of the INSERM I2MC UMR 1048. All animal procedures were performed according to the guidelines of the French Ministry of Agriculture. Animals were housed at the Toulouse I2MC animal facility in a room lit 12 h per day (6 AM-6 PM) at an ambient temperature of 22+/−1° C. Construction of ApoO Expression Vectors To overexpress human ApoO (pTT-ApoO), the ApoO coding sequence was amplified using primers hApoO5BamPTT (SEQ ID NO: 2) and hApoO3BamPTT (SEQ ID NO: 3) and cloned into the BamH1 site of pTT expression vector. pSNAP-ApoO was generated by PCR amplification of pTT-ApoO using primers SnapApoEcorV-F (SEQ ID NO: 4) and SnapApoEcorV-R (SEQ ID NO: 5) and cloned into the EcoRV site of pSNAP-Tag® (Ozyme, Saint-Quentin-en-Yvelines, France). pGEX2T-ApoO was constructed by PCR amplification of pTT-ApoO using hApoOpGEX1FBam (SEQ ID NO: 6) and hApoOpGEX1RSma (SEQ ID NO: 7) and cloned into the Bam HI/Sma I site of pGEX2T (Promega, Charbonnières-les-Bains). All primers used in this work were synthesized by Eurogentec France (Angers). All restriction enzymes used were from New England Biolabs (Ozyme, Saint-Quentin-en-Yvelines). All ApoO sequences within the expression vectors were verified by DNA double strand sequencing using ABI PRISM®BigDye™ Terminator version 3.1 Ready reaction cycle sequencing kit (Life Technologies SAS, Villebon sur Yvette) and loaded on an ABI 3130XL DNA sequencing instrument (Life Technologies SAS, Villebon sur Yvette). Cell Culture and Tranfection of H9C2 Cardic Myoblasts H9c2 were obtained from the European Collection of Cell Cultures (Salisbury, England). H9c2 cells were cultured in Dulbecco's modified Eagle medium (Life Technologies SAS, Villebon sur Yvette) adjusted to contain 1.5 g/liter sodium bicarbonate and supplemented with antibiotic-antimycotic solution (Life Technologies SAS, Villebon sur Yvette) and 10% fetal bovine serum (FBS, AbCys s.a., Paris). Cells were plated on 10-cm diameter tissue culture dish and grown in a 5% CO2 incubator at 37° C. with saturating humidity with medium changes every 2 days. H9c2 cardiomyoblasts were stably transfected by electroporation and pools of tranfectants were selected as previously published. Knock-Down of ApoO Overexpression shRNA used to knock-down ApoO gene expression and controls were from MISSION shRNA set; Sh2=TRCN 72707; Sh4=TRCN 72704; Sh5=TRCN 72705 (Sigma Aldrich, Saint-Quentin Fallavier) and used as recommended by generating pools of stable transfectants. Empty vector (no shRNA insert) control was also transfected and had no significant effect. […]

B1: ApoO: 198-amino acid apolipoprotein, SEQ ID NO: 1; tested by overexpression from expression vectors or transgene (protein, listed as Homo sapiens)
chain: MFKVIQRSVGPASLSLLTFKVYAAPKKDSPPKNSVKVDELSLYSVPEGQSKYVEEARSQLEESISQLRHYCEPYTTWCQETYSQTKPKMQSLVQWGLDSYDYLQNAPPGFFPRLGVIGFAGLIGLLLARGSKIKKLVYPPGFMGLAASLYYPQQAIVFAQVSGERLYDWGLRGYIVIEDLWKENFQKPGNVKNSPGTK
Q: With B1 as the molecule, how does the “interaction with VDAC” value (VDAC) read?
A: The value was “excluded any interaction”.

Q: And the “plasma membrane morphology (TEM)” value (cardiac myoblasts)?
A: The value was “formation of blebs”.

Q: And the “apoptosis (membrane blebbing)” value (glioblastoma cells; cells which express ApoO vs cells which do not (FIG. 16))?
A: Its value is “apoptosis occurs”.

Q: And the mitochondrial morphology (glioblastoma cells; expression or overexpression of ApoO in glioblastoma cells)?
A: Its mitochondrial morphology is “development of abnormal mitochondria”.

Q: What about the lipid accumulation (glioblastoma cells; glioblastoma cells expressing ApoO, in the presence of palmitate (FIG. 15)) of the same molecule?
A: Its lipid accumulation is “lipid accumulate”.

Q: And the “cytochrome C oxidase activity in heart” value (mouse heart; ApoO-Tg hearts)?
A: Its value is “increase”.

Q: What about the “diglyceride levels in heart” value (mouse heart; ApoO-Tg vs WT (FIG. 8a)) of the same molecule?
A: The value was “increased”.

Q: What about the “intracellular triglycerides in heart” value (mouse heart; ApoO-Tg vs WT (FIG. 8b)) of the same molecule?
A: The value was “did not significantly modify”.

Q: What about the “Bax expression in heart” value (mouse heart; ApoO-Tg vs WT (FIG. 9b)) of the same molecule?
A: The value was “enhanced”.

Q: And the “Caspase-3 activity in heart” value (mouse heart; ApoO-Tg vs WT (FIG. 9c))?
A: Its value is “enhanced”.

Q: What about the “ACSL activity in heart” value (mouse heart; hearts from ApoO-Tg mice) of the same molecule?
A: Its value is “significant increase”.

Q: What about the “fatty acid transporter expression in heart” value (mouse heart; hearts from ApoO-Tg mice) of the same molecule?
A: Its value is “significant increase”.

Q: What about the calcium retention capacity (mouse heart; mitochondria isolated from ApoO-Tg mice hearts) of the same molecule?
A: The calcium retention capacity was “significantly diminished”.

From patent US10272135B2, “Apolipoprotein O and fragments thereof for inducing apoptosis in a cancerous cell” (INSERM (INSTITUT NATIONAL DE LA SANTÉ ET DE LA RECHERCHE …, priority 2014, dated 2019)
